Results published in US20180355056A1 (Novartis, published 2018).

Legend:
Human FXI zymogen = biological target: T1, Human FXI zymogen (human, UniProt P03951 19-625); assay: SET KD compared with the BIACORE KD for the FXI catalytic domain
T1 construct: also called huFXI; zymogen FXI

Human FXI activated = biological target: T2, Human FXI activated (human, UniProt P03951 19-387; P03951 388-625); assay: as above
T2 construct: The activity assay used Kordia HFXIa 1111a; also called huFXIa
T2 sequence (P03951 19-387 C226S, chain 1 of 2): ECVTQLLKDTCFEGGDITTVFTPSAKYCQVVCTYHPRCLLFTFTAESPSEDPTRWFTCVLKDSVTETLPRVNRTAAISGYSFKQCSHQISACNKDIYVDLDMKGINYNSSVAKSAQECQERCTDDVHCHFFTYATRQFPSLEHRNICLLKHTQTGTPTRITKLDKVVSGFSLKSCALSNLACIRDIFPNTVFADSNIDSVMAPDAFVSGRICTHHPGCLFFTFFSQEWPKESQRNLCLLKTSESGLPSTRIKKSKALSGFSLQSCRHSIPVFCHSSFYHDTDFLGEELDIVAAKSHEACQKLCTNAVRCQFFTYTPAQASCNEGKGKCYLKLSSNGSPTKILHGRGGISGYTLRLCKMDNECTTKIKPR
T2 sequence (P03951 388-625, chain 2 of 2): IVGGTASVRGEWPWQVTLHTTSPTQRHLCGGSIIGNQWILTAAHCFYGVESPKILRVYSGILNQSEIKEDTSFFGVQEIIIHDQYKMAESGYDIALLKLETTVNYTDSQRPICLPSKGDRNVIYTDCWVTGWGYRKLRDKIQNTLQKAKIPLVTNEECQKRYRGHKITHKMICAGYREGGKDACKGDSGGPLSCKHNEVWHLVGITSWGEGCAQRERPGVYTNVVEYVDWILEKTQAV

T1 sequence (P03951 19-625 C226S): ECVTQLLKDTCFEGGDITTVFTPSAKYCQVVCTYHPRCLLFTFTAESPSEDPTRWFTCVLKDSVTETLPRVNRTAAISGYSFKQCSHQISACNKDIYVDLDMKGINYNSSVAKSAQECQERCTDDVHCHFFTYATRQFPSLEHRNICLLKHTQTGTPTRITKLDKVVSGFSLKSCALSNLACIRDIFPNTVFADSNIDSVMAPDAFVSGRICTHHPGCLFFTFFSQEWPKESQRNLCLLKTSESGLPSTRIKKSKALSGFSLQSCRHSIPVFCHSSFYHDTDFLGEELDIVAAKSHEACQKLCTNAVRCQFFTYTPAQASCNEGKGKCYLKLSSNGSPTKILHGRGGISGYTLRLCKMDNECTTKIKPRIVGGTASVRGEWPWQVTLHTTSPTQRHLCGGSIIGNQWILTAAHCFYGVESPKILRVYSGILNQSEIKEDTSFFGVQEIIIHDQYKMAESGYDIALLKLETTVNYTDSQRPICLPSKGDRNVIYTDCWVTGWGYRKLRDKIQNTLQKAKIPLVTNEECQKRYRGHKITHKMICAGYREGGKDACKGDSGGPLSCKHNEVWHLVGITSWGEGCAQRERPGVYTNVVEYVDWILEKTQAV

B1: NOV1401-Fab (Fab, V domains shown)
VH: QVQLLESGGGLVQPGGSLRLSCAASGFTFSTAAMSWVRQAPGKGLEWVSGISGSGSSTYYADSVKGRFTISRDNSKNTLYLQMNSLRAEDTAVYYCARELSYLYSGYYFDYWGQGTLVTVSS
VL: QSVLTQPPSASGTPGQRVTISCSGSSSNIGSNDVSWYQQLPGTAPKLLIYKNYNRPSGVPDRFSGSKSGTSASLAISGLQSEDEADYYCSAWDQRQFDVVFGGGTKLTVLG
notes: also called Fab portion of NOV1401
Human FXI zymogen
  fold higher affinity than to the catalytic domain: 300 times
Human FXI activated
  fold higher affinity than to the catalytic domain: 66 times
